Experimental data: publication PMC8036718, “Two Be or Not Two Be: The Nuclear Autoantigen La/SS-B Is Able to Form Dimers and Oligomers in a Redox Dependent Manner” (International Journal of Molecular Sciences, 2021)

B5: LaC, C-terminal La fragment aa194-408 (domain or fragment, human, UniProt P05455 194-408, looked up)
chain: EERKQNKVEAKLRAKQEQEAKQKLEEDAEMKSLEEKIGCLLKFSGDLDDQTCREDLHILFSNHGEIKWIDFVRGAKEGIILFKEKAKEALGKAKDANNGNLQLRNKEVTWEVLEGEVEKEALKKIIEDQQESLNKWKSKGRRFKGKGKGNKAAQPGSGKGKVQFQGKKTKFASDDEHDEHDENGATGPVKRAREETDKEEPASKQQKTENGAGDQ

Assays:
[1] = molecular target: T1, full-length human La protein (La 1-408) (human, UniProt P05455 1-408); assay: SPR; full-length human La protein (La1-408) covalently linked to the sensor chip; BSA-coupled chip as control; La 1-408 or deletion mutants as analytes; details: both partners purified
T1 construct: Cloned into pET28b; also called La/SS-B; wild-type La protein
T1 sequence (looked up): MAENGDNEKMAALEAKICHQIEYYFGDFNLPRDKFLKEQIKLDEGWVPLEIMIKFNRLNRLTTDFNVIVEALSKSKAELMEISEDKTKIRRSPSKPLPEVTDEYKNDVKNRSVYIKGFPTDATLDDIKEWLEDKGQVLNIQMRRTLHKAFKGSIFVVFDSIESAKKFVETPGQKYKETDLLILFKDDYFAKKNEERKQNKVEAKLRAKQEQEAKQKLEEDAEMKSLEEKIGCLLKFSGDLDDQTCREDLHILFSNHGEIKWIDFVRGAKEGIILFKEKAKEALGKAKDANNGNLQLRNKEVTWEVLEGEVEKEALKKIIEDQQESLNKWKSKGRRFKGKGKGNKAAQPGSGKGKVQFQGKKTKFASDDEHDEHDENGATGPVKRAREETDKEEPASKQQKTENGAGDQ

[2] = molecular target: the molecule itself; assay: non-reducing SDS-PAGE and immunoblotting; purified La proteins as isolated (untreated) or treated with 2 mM CuSO4 (oxidized), sample buffer without ß-mercaptoethanol; blots with anti-La mAb SW5 or 7B6; shows only species held by disulfide bridges
[3] = molecular target: T1, full-length human La protein (La 1-408); assay: far-Western, overlay or dot blot; His-tagged La fragments separated by SDS-PAGE and blotted; after blocking the membrane was incubated with unlabeled full-length La protein (or LaN); bound probe detected with the anti-La mAb SW5 (Figure 5C also with 5B9); details: both partners purified
[4] = molecular target: B5; assay: as above; details: both partners purified

B1: La 1-371 (domain or fragment, human, UniProt P05455 1-371, looked up)
chain: MAENGDNEKMAALEAKICHQIEYYFGDFNLPRDKFLKEQIKLDEGWVPLEIMIKFNRLNRLTTDFNVIVEALSKSKAELMEISEDKTKIRRSPSKPLPEVTDEYKNDVKNRSVYIKGFPTDATLDDIKEWLEDKGQVLNIQMRRTLHKAFKGSIFVVFDSIESAKKFVETPGQKYKETDLLILFKDDYFAKKNEERKQNKVEAKLRAKQEQEAKQKLEEDAEMKSLEEKIGCLLKFSGDLDDQTCREDLHILFSNHGEIKWIDFVRGAKEGIILFKEKAKEALGKAKDANNGNLQLRNKEVTWEVLEGEVEKEALKKIIEDQQESLNKWKSKGRRFKGKGKGNKAAQPGSGKGKVQFQGKKTKFASDDEHD
notes: La protein, human, residues 1-371 (holds the Dim domain)
B1: binds [1].

B2: La 1-245 (domain or fragment, human, UniProt P05455 1-245, looked up)
chain: MAENGDNEKMAALEAKICHQIEYYFGDFNLPRDKFLKEQIKLDEGWVPLEIMIKFNRLNRLTTDFNVIVEALSKSKAELMEISEDKTKIRRSPSKPLPEVTDEYKNDVKNRSVYIKGFPTDATLDDIKEWLEDKGQVLNIQMRRTLHKAFKGSIFVVFDSIESAKKFVETPGQKYKETDLLILFKDDYFAKKNEERKQNKVEAKLRAKQEQEAKQKLEEDAEMKSLEEKIGCLLKFSGDLDDQTC
notes: La protein, human, residues 1-245 (lacks the Dim domain)
B2: binds [1].

B3: mono cysteine mutant of La protein (La_C18A) (natural protein, human, UniProt P05455 1-408, looked up)
chain: MAENGDNEKMAALEAKIAHQIEYYFGDFNLPRDKFLKEQIKLDEGWVPLEIMIKFNRLNRLTTDFNVIVEALSKSKAELMEISEDKTKIRRSPSKPLPEVTDEYKNDVKNRSVYIKGFPTDATLDDIKEWLEDKGQVLNIQMRRTLHKAFKGSIFVVFDSIESAKKFVETPGQKYKETDLLILFKDDYFAKKNEERKQNKVEAKLRAKQEQEAKQKLEEDAEMKSLEEKIGCLLKFSGDLDDQTCREDLHILFSNHGEIKWIDFVRGAKEGIILFKEKAKEALGKAKDANNGNLQLRNKEVTWEVLEGEVEKEALKKIIEDQQESLNKWKSKGRRFKGKGKGNKAAQPGSGKGKVQFQGKKTKFASDDEHDEHDENGATGPVKRAREETDKEEPASKQQKTENGAGDQ
notes: La protein, human, with Cys18 changed to alanine; Runs as 50 kDa La protein
B3: binds [2].

B4: double cysteine mutant of La protein (La_C232A_C245A) (natural protein, human, UniProt P05455 1-408, looked up)
chain: MAENGDNEKMAALEAKICHQIEYYFGDFNLPRDKFLKEQIKLDEGWVPLEIMIKFNRLNRLTTDFNVIVEALSKSKAELMEISEDKTKIRRSPSKPLPEVTDEYKNDVKNRSVYIKGFPTDATLDDIKEWLEDKGQVLNIQMRRTLHKAFKGSIFVVFDSIESAKKFVETPGQKYKETDLLILFKDDYFAKKNEERKQNKVEAKLRAKQEQEAKQKLEEDAEMKSLEEKIGALLKFSGDLDDQTAREDLHILFSNHGEIKWIDFVRGAKEGIILFKEKAKEALGKAKDANNGNLQLRNKEVTWEVLEGEVEKEALKKIIEDQQESLNKWKSKGRRFKGKGKGNKAAQPGSGKGKVQFQGKKTKFASDDEHDEHDENGATGPVKRAREETDKEEPASKQQKTENGAGDQ
notes: La protein, human, with Cys232 and Cys245 changed to alanine
In the case of B4, the “stoichiometry N” value [2] is reported as 2.

B5: binds [3].

B6: LaN, C-terminally truncated La fragment aa1-192 (domain or fragment, human, UniProt P05455 1-192, looked up)
chain: MAENGDNEKMAALEAKICHQIEYYFGDFNLPRDKFLKEQIKLDEGWVPLEIMIKFNRLNRLTTDFNVIVEALSKSKAELMEISEDKTKIRRSPSKPLPEVTDEYKNDVKNRSVYIKGFPTDATLDDIKEWLEDKGQVLNIQMRRTLHKAFKGSIFVVFDSIESAKKFVETPGQKYKETDLLILFKDDYFAKK
notes: La protein, human, residues 1-192 (La motif plus RRM1 domain); also called La 1-192
B6: binds [4].

B7: La 239-408 (domain or fragment, human, UniProt P05455 239-408, looked up)
chain: DLDDQTCREDLHILFSNHGEIKWIDFVRGAKEGIILFKEKAKEALGKAKDANNGNLQLRNKEVTWEVLEGEVEKEALKKIIEDQQESLNKWKSKGRRFKGKGKGNKAAQPGSGKGKVQFQGKKTKFASDDEHDEHDENGATGPVKRAREETDKEEPASKQQKTENGAGDQ
B7: binds [1].

B8: La 278-408 (domain or fragment, human, UniProt P05455 278-408, looked up)
chain: KAKEALGKAKDANNGNLQLRNKEVTWEVLEGEVEKEALKKIIEDQQESLNKWKSKGRRFKGKGKGNKAAQPGSGKGKVQFQGKKTKFASDDEHDEHDENGATGPVKRAREETDKEEPASKQQKTENGAGDQ
B8: binds [1].
